Reference: patent US8491891B2, “Human beta-glucuronidase mutants with elevated enzymatic activity under physiological conditions and method for identifying such” (Academia Sinica, priority 2008, dated 2013)
Where a chain is given by its changes, count along the chain named. Names and notes keep the numbering of the source.

B1: Wild type: Human beta-glucuronidase (wild-type, SEQ ID NO: 11) (protein, listed as Homo sapiens)
chain: MARGSAVAWAALGPLLWGCALGLQGGMLYPQESPSRECKELDGLWSFRADFSDNRRRGFEEQWYRRPLWESGPTVDMPVPSSFNDISQDWRLRHFVGWVWYEREVILPERWTQDLRTRVVLRIGSAHSYAIVWVNGVDTLEHEGGYLPFEADISNLVQVGPLPSRLRITIAINNTLTPTTLPPGTIQYLTDTSKYPKGYFVQNTYFDFFNYAGLQRSVLLYTTPTTYIDDITVTTSVEQDSGLVNYQISVKGSNLFKLEVRLLDAENKVVANGTGTQGQLKVPGVSLWWPYLMHERPAYLYSLEVQLTAQTSLGPVSDFYTLPVGIRTVAVTKSQFLINGKPFYFHGVNKHEDADIRGKGFDWPLLVKDFNLLRWLGANAFRTSHYPYAEEVMQMCDRYGIVVIDECPGVGLALPQFFNNVSLHHHMQVMEEVVRRDKNHPAVVMWSVANEPASHLESAGYYLKMVIAHTKSLDPSRPVTFVSNSNYAADKGAPYVDVICLNSYYSWYHDYGHLELIQLQLATQFENWYKKYQKPIIQSEYGAETIAGFHQDPPLMFTEEYQKSLLEQYHLGLDQKRRKYVVGELIWNFADFMTEQSPTRVLGNKKGIFTRQRQPKSAAFLLRERYWKIANETRYPHSVAKSQCLENSPFT
B2: E1-S: human beta-glucuronidase variant T545S, SEQ ID NO: 6 (protein)
chain: GAQPALQGGMLYPQESPSRECKELDGLWSFRADFSDNRRRGFEEQWYRRPLWESGPTVDMPVPSSFNDISQDWRLRHFVGWVWYEREVILPERWTQDLRTRVVLRIGSAHSYAIVWVNGVDTLEHEGGYLPFEADISNLVQVGPLPSRLRITIAINNTLTPTTLPPGTIQYLTDTSKYPKGYFVQNTYFDFFNYAGLQRSVLLYTTPTTYIDDITVTTSVEQDSGLVNYQISVKGSNLFKLEVRLLDAENKVVANGTGTQGQLKVPGVSLWWPYLMHERPAYLYSLEVQLTAQTSLGPVSDFYTLPVGIRTVAVTKSQFLINGKPFYFHGVNKHEDADIRGKGFDWPLLVKDFNLLRWLGANAFRTSHYPYAEEVMQMCDRYGIVVIDECPGVGLALPQFFNNVSLHHHMQVMEEVVRRDKNHPAVVMWSVANEPASHLESAGYYLKMVIAHTKSLDPSRPVTFVSNSNYAADKGAPYVDVICLNSYYSWYHDYGHLELIQLQLATQFENWYKKYQKPIIQSEYGAESIAGFHQDPPLMFTEEYQKSLLEQYHLGLDQKRRKYVVGELIWNFADFMTEQSPTRVLGNKKGIFTRQRQPKSAAFLLRERYWKIANETRYPHSVAKSQCLENSPFTSVD
modifications: Laboratory generated variant, E1-S, based upon the human beta-glucuronidase
B3: E1-G: human beta-glucuronidase variant T545G, SEQ ID NO: 7 (protein)
chain: B2 chain with S528G
modifications: Laboratory generated variant, E1-G, based upon the human beta-glucuronidase
B4: E1-Y: human β-glucuronidase single amino acid mutant T545Y (protein, UniProt P08236 23-651, looked up, variant T545Y)
Beta-glucuronidase: LQGGMLYPQESPSRECKELDGLWSFRADFSDNRRRGFEEQWYRRPLWESGPTVDMPVPSSFNDISQDWRLRHFVGWVWYEREVILPERWTQDLRTRVVLRIGSAHSYAIVWVNGVDTLEHEGGYLPFEADISNLVQVGPLPSRLRITIAINNTLTPTTLPPGTIQYLTDTSKYPKGYFVQNTYFDFFNYAGLQRSVLLYTTPTTYIDDITVTTSVEQDSGLVNYQISVKGSNLFKLEVRLLDAENKVVANGTGTQGQLKVPGVSLWWPYLMHERPAYLYSLEVQLTAQTSLGPVSDFYTLPVGIRTVAVTKSQFLINGKPFYFHGVNKHEDADIRGKGFDWPLLVKDFNLLRWLGANAFRTSHYPYAEEVMQMCDRYGIVVIDECPGVGLALPQFFNNVSLHHHMQVMEEVVRRDKNHPAVVMWSVANEPASHLESAGYYLKMVIAHTKSLDPSRPVTFVSNSNYAADKGAPYVDVICLNSYYSWYHDYGHLELIQLQLATQFENWYKKYQKPIIQSEYGAEYIAGFHQDPPLMFTEEYQKSLLEQYHLGLDQKRRKYVVGELIWNFADFMTEQSPTRVLGNKKGIFTRQRQPKSAAFLLRERYWKIANETRYPHSVAKSQCLENSLFT

What was measured:
[1] = Relative activity of membrane-tethered human β-glucuronidase variants on 3T3 cells by flow cytometry (FL4/FL1); format: cell-based; settings: membrane-tethered enzyme, pH 7.0, substrate ELF97 β-D-glucuronide
Method: The 3T3 cell libraries mentioned above were screened by FACS analysis for cells that express human β-glucuronidase variants with elevated enzymatic activity. 10^7 3T3 cells expressing membrane-bound human β-glucuronidase variants were washed and suspended in 0.4 ml BSA/HBSS (5.4 mM KCl, 0.3 mM Na2HPO4, 0.4 mM KH2PO4, 4.2 mM NaHCO3, 1.3 mM CaCl2, 0.5 mM MgCl2, 0.6 mM MgSO4, 137 mM NaCl, 5.6 mM D-glucose, pH 7.4) containing 0.5% bovine serum albumin (BSA) and 20 μg/ml 7G8-FITC for 30 min at 4° C. Cells were then washed and incubated with 25, 50 or 100 μM ELF97 β-D-glucuronide at defined pH values in 50 mM Bis-Tris, 25 mM glucose, 85.6 mM NaCl, 5.4 mM KCl, 0.6 mM MgSO4, 1.3 mM CaCl2) at 37° C. for 10 min. The cells were washed with ice-cold 0.5% BSA/HBSS and suspended in 0.5% BSA/HBSS containing 5 μg/ml propidium iodide (Sigma). Cells were then sorted on a FACSVantage DiVa (Becton, Dickinson and Company, Franklin Lakes, N.J.) equipped with an Enterprise IIC argon laser for dual excitation at 488 and 351-364 nm. Dead cells (propidium iodide positive, high FL3 fluorescence) were gated out before 7G8-FITC immunofluorescence was detected at excitation/emission wavelengths of 488/515 nm (FL1) and ELF97 was detected at excitation/emission wavelengths of 351/530 nm (FL4). […] The sorted cells were cultured for 4-10 days for sequential rounds of cell sorting or RNA extraction. Flow cytometer data was analyzed using Flowjo (Tree star, Ashland, Oreg.).
Independent 3T3 clones (5×10^7) in library EP2 mentioned above were immunofluorescence stained with 7G8-FITC and reacted with ELF97 β-D-glucuronide at pH 7.0. Sixteen individual cell clones were isolated after three rounds of sorting and the human β-glucuronidase genes were sequenced. […] Table 1 below lists amino acid substitutions in five exemplary variants and their relative enzymatic activities.

[2] = Kinetic values (Km, kcat) of soluble recombinant human β-glucuronidase and variants; format: biochemical; settings: for kcat/Km, fold higher than wild-type human β-glucuronidase: pH 7.0
Method: Recombinant His-tagged wild-type human β-glucuronidase and its variants (soluble) were produced in and purified from stable 3T3 fibroblast lines, following the method described above also the method described in Wu et al., Biotechnol Appl Biochem 40:167-172 (2004).
(§1) The pH-dependent enzyme activities of the above-mentioned recombinant human beta-glucuronidase and variants were measured in triplicate with 0.1 mM ELF97 β-D-glucuronide at 37° C. for 30 minutes at a defined pH ranging from 3-10 in a beta-glucuronidase reaction buffer (50 mM Bis-Tris, 50 mM triethanol amine, 100 mM acetic acid, 0.1% BSA). The reaction was quenched by adding an equal volume of a stop buffer (2 M Tris-HCl, 0.8 M sodium bicarbonate, pH 8). The fluorescence of ELF97 was measured in a Gemini EM microplate spectrofluorometer (Molecular Device, Sunnyvale, Calif.) at excitation/emission wavelengths of 355/555 nm. Kinetic values for human beta-glucuronidase substrate hydrolysis were determined by diluting ELF97 β-D-glucuronide (2 mM) in a pH 4.5 or pH 7.0 beta-glucuronidase reaction buffer 1:1 with defined concentrations of human beta-glucuronidase in 200 μl. Fluorescence was immediately measured under thermal control at 37° C. for 8-10 min. The measurement was repeated using the same amount of enzyme at different substrate concentrations in an optimal range. The acquired readings were converted to product concentration based on preestablished standard curves. Double reciprocal plots were used to determine Km and kcat. Kinetic assays were performed at least 3 times and mean values were calculated. The stability of recombinant human beta-glucuronidase variants was carried out by measuring their enzymatic activity at time 0 and again after incubating 5 μg purified enzymes in PBS (containing 0.5 mg/ml BSA) at 37° C. for 14 days. The enzymatic activities of the human beta-glucuronidase variants were measured in triplicate with 0.5 mM 4-methylumbelliferyl β-D-glucuronide at 37° C. for 15 minutes at pH 7.0 in β-glucuronidase reaction buffer. The reaction was terminated by adding an equal volume of a stop buffer (1 M glycine, 0.5 M sodium bicarbonate, pH 11) and the fluorescence was measured at excitation/emission wavelengths of 355/460 nm in a microplate spectrofluorometer.

[3] = pH-dependent enzyme activity of recombinant human β-glucuronidase and variants (pH 3-10); format: biochemical
Method: as §1, with “The measurement was repeated using the same amount of enzyme at different substrate concentrations in an optimal range.” left out, “Double reciprocal plots were used to determine Km and kcat.” left out, “The stability of recombinant human beta-glucuronidase variants was carried out by measuring their enzymatic activity at time 0 and again after incubating 5 μg purified enzymes in PBS (containing 0.5 mg/ml BSA) at 37° C. for 14 days.” left out, “The reaction was terminated by adding an equal volume of a stop buffer (1 M glycine, 0.5 M sodium bicarbonate, pH 11) and the fluorescence was measured at excitation/emission wavelengths of 355/460 nm in a microplate spectrofluorometer.” left out

[4] = test system: EJ human bladder cancer cells; experiment: Prodrug activation of HAMG by enzyme, 3H-thymidine incorporation; format: cell-based; settings: 10 μM HAMG, pH 6.8, 24 h
Method: (§2) The prodrug activation activity of the human beta-glucuronidase variants was determined as follows. EJ human bladder cancer cells were incubated with graded concentrations (see FIGS. 3B and 3C) of human β-glucuronidase variants in RPMI (pH 6.8) containing either 10 μM HAMG or 100 nM SN-38G for 24 hours. The cells were further incubated for 24 hours in fresh medium before incorporation of ^3H-thymidine into cellular DNA was measured following the procedure described below.
(§3) Purified recombinant human beta-glucuronidase and its variants with defined concentrations were mixed with 10 μM HAMG or 100 nM SN-38G and the mixture was added to 5000 EJ human bladder cancer cells in 200 μl complete medium at pH 6.8 for 24 h. The cells were washed and incubated in fresh medium for 24 h and then pulsed for 16 h with ^3H-thymidine (1 μCi/well). The cells were harvested and the radioactivity was measured in a TopCount Microplate Scintillation Counter (Packard, Meriden, Conn.). Results are expressed as percent inhibition of ^3H-thymidine incorporation into cellular DNA in comparison to untreated cells.

[5] = test system: EJ human bladder cancer cells; experiment: Prodrug activation of SN-38G by enzyme, 3H-thymidine incorporation; format: cell-based; settings: 100 nM SN-38G, pH 6.8, 24 h
Method: as §2, §3

[6] = Enzymatic activity of purified position-545 single mutants at pH 7.0; format: biochemical; settings: purified enzyme
Source text: DNA plasmids were extracted from 12 individual cell clones and subjected to DNA sequencing to examine mutations in the genes encoding human β-glucuronidase variants. All human β-glucuronidase variants being examined had mutations at position 545 (50% T→A and 50% T→S). To determine the effect of amino acid substitutions at position 545 on enzyme activity, the single amino acid mutants T545A (E1-A), T545G (E1-G), T545S (E1-S) and T545Y (E1-Y) were generated and purified from the culture medium of stably transfected fibroblasts. […] Thus, the single amino acid substitution at position 545 affected human β-glucuronidase activity at neutral pH.

| Molecule | Relative activity (FL4/FL1 normalized to wild-type human β-glucuronidase) [1] | Km ([2]; pH 4.5, 37° C.) [µM] | kcat ([2]; pH 4.5, 37° C.) [s⁻¹] | Km ([2]; pH 7.0, 37° C.) [µM] | kcat ([2]; pH 7.0, 37° C.) [s⁻¹] | pH of maximal activity ([3]; 0.1 mM ELF97 β-D-glucuronide, 37° C., 30 minutes) | Activity at pH 7.0 as percent of maximal activity ([3]; pH 7.0) [%] | EC50 of enzyme for killing of EJ cells with HAMG [4] [µg/mL] | EC50 of enzyme for killing of EJ cells with SN-38G [5] [µg/mL] | Enzymatic activity relative to wild-type human β-glucuronidase [6] | kcat/Km, fold higher than wild-type human β-glucuronidase [2] [fold] |
| --- | --- | --- | --- | --- | --- | --- | --- | --- | --- | --- | --- |
| B1 | 1 | 480 ± 60 | 175 ± 17 | 2250 ± 670 | 41 ± 6 | 4.0 | 2 | 24 | 0.096 |  |  |
| B2 | 21 | 52 ± 4 | 117 ± 14 | 390 ± 40 | 31 ± 6 |  |  |  |  | about 1.5 fold | 4 |
| B3 |  | 22 ± 2 | 106 ± 4 | 110 ± 10 | 32 ± 4 |  |  |  |  | about 2.5 fold | 10 |
| B4 |  |  |  |  |  |  |  |  |  | almost inactive |  |
